Experiments:
[1] = target: T1, Recombinant Human TNF-α/TNFSF1A (human, UniProt P01375 77-233); assay: SPR (BIACORE), antibody captured, TNFα in solution
T1 construct: also called hTNF-α; huTNFα
Protocol: The BIACORE assay (Biacore, Inc, Piscataway, N.J.) determines the affinity of antibodies with kinetic measurements of on-rate and off-rate constants. Binding of antibodies to a target antigen (for example, a purified recombinant target antigen) is determined by surface plasmon resonance-based measurements with a Biacore® 1000 or 3000 instrument (Biacore® AB, Uppsala, Sweden) using running HBS-EP (10 mM HEPES [pH 7.4], 150 mM NaCl, 3 mM EDTA, and 0.005% surfactant P20) at 25° C. All chemicals are obtained from Biacore® AB (Uppsala, Sweden) or otherwise from a different source as described. For example, approximately 5000 RU of goat anti-mouse IgG, (Fcγ), fragment specific polyclonal antibody (Pierce Biotechnology Inc, Rockford, Ill.) diluted in 10 mM sodium acetate (pH 4.5) is directly immobilized across a CM5 research grade biosensor chip using a standard amine coupling kit according to manufacturer's instructions and procedures at 25 μg/ml. Unreacted moieties on the biosensor surface are blocked with ethanolamine. Modified carboxymethyl dextran surface in flowcell 2 and 4 is used as a reaction surface. Unmodified carboxymethyl dextran without goat anti-mouse IgG in flow cell 1 and 3 is used as the reference surface. For kinetic analysis, rate equations derived from the 1:1 Langmuir binding model are fitted simultaneously to association and dissociation phases of all eight injections (using global fit analysis) with the use of Biaevaluation 4.0.1 software. Purified antibodies are diluted in HEPES-buffered saline for capture across goat anti-mouse IgG specific reaction surfaces. Antibodies to be captured as a ligand (25 μg/ml) are injected over reaction matrices at a flow rate of 5 μl/minute. The association and dissociation rate constants, kₒₙ (M⁻¹ s⁻¹) and koff (s⁻¹), are determined under a continuous flow rate of 25 μl/minute. Rate constants are derived by making kinetic binding measurements at different antigen concentrations ranging from 10-200 nM. The equilibrium dissociation constant (M) of the reaction between antibodies and the target antigen is then calculated from the kinetic rate constants by the following formula: KD=koff/kₒₙ. Binding is recorded as a function of time and kinetic rate constants are calculated. In this assay, on-rates as fast as 10⁶ M⁻¹ s⁻¹ and off-rates as slow as 10⁻⁶ s⁻¹ can be measured.

[2] = target: T1, Recombinant Human TNF-α/TNFSF1A; assay: cell-based or functional assay

T1 sequence (P01375 77-233 limits assumed): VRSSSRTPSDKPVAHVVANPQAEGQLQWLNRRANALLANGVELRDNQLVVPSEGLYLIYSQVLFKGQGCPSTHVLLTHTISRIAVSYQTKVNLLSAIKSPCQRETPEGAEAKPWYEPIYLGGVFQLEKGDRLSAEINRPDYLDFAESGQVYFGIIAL

Binder | Kd [1] [nM] | koff [1] [s⁻¹] | kon [1] [M⁻¹ s⁻¹] | TNFα Neutralization Assay IC50 nM (L929 cells) [2] [nM]
AB378 (antibody, V domains shown, Full-length humanized antibody made in HEK 293-6E; also called hMAK199VH.2a/hMAK199VL.2) VH: EIQLVQSGAEVKKPGASVKVSCKASGYTFTNYGMNWVRQAPGQGLEWMGWINTYTGEPTYADDFKGRFTFTLDTSTSTAYMELSSLRSEDTAVYFCARKFLTTVVVTDYAMDYWGQGTTVTVSS VL: DVVMTQSPAFLSVTPGEKVTITCRASQDISNYLNWYQQKPDQAPKLLIKYTSRLQSGVPSRFSGSGSGTDFTFTISSLEAEDAATYYCQQGNTLPPTFGQGTKLEIK | 1.4 | 0.0013 | 880000 | –
AB372 (antibody, V domains shown, Full-length humanized antibody made in HEK 293-6E; also called hMAK199VH.2/hMAK199VL.2) VH: EVQLVQSGAEVKKPGASVKVSCKASGYTFTNYGMNWVRQAPGQGLEWMGWINTYTGEPTYADDFKGRVTMTTDTSTSTAYMELSSLRSEDTAVYYCARKFLTTVVVTDYAMDYWGQGTTVTVSS VL: DVVMTQSPAFLSVTPGEKVTITCRASQDISNYLNWYQQKPDQAPKLLIKYTSRLQSGVPSRFSGSGSGTDFTFTISSLEAEDAATYYCQQGNTLPPTFGQGTKLEIK | 1.2 | 0.0011 | 950000 | –
AB354 (antibody, V domains shown, Full-length humanized antibody made in HEK 293-6E; also called hMAK199VH.1/hMAK199VL.2) VH: EVQLVQSGSELKKPGASVKVSCKASGYTFTNYGMNWVRQAPGQGLEWMGWINTYTGEPTYADDFKGRFVFSLDTSVSTAYLQISSLKAEDTAVYYCARKFLTTVVVTDYAMDYWGQGTTVTVSS VL: DVVMTQSPAFLSVTPGEKVTITCRASQDISNYLNWYQQKPDQAPKLLIKYTSRLQSGVPSRFSGSGSGTDFTFTISSLEAEDAATYYCQQGNTLPPTFGQGTKLEIK | 0.52 | 0.001 | 2e+06 | –
AB360 (antibody, V domains shown, Full-length humanized antibody made in HEK 293-6E; also called hMAK199VH.1a/hMAK199VL.2) VH: EIQLVQSGSELKKPGASVKVSCKASGYTFTNYGMNWVRQAPGQGLEWMGWINTYTGEPTYADDFKGRFVFSLDTSVSTAYLQISSLKAEDTAVYFCARKFLTTVVVTDYAMDYWGQGTTVTVSS VL: DVVMTQSPAFLSVTPGEKVTITCRASQDISNYLNWYQQKPDQAPKLLIKYTSRLQSGVPSRFSGSGSGTDFTFTISSLEAEDAATYYCQQGNTLPPTFGQGTKLEIK | 0.78 | 0.00097 | 1.2e+06 | –
AB366 (antibody, V domains shown, Full-length humanized antibody made in HEK 293-6E; also called hMAK199VH.1b/hMAK199VL.2) VH: EVQLVQSGSELKKPGASVKVSCKASGYTFTNYGMNWVRQAPGQGLEWMGWINTYTGEPTYADDFKGRFVFSLDTSVSTAYLQISSLKAEDTAVYFCARKFLTTVVVTDYAMDYWGQGTTVTVSS VL: DVVMTQSPAFLSVTPGEKVTITCRASQDISNYLNWYQQKPDQAPKLLIKYTSRLQSGVPSRFSGSGSGTDFTFTISSLEAEDAATYYCQQGNTLPPTFGQGTKLEIK | 0.93 | 0.0015 | 1.6e+06 | –

The remaining binders from weak to strong by Kd [1], led by results:

Kd [1] [nM] | koff [1] [s⁻¹] | kon [1] [M⁻¹ s⁻¹] | TNFα Neutralization Assay IC50 nM (L929 cells) [2] [nM] | Binder
2.1 | 0.0014 | 660000 | – | AB384 (antibody, V domains shown, Full-length humanized antibody made in HEK 293-6E; also called hMAK199VH.2b/hMAK199VL.2) VH: EIQLVQSGAEVKKPGASVKVSCKASGYTFTNYGMNWVRQAPGQGLEWMGWINTYTGEPTYADDFKGRVTFTTDTSTSTAYMELSSLRSEDTAVYYCARKFLTTVVVTDYAMDYWGQGTTVTVSS VL: DVVMTQSPAFLSVTPGEKVTITCRASQDISNYLNWYQQKPDQAPKLLIKYTSRLQSGVPSRFSGSGSGTDFTFTISSLEAEDAATYYCQQGNTLPPTFGQGTKLEIK
0.46 | 0.00092 | 2e+06 | 0.66 | AB353 (antibody, V domains shown, Full-length humanized antibody made in HEK 293-6E; also called hMAK199VH.1/hMAK199VL.1b) VH: EVQLVQSGSELKKPGASVKVSCKASGYTFTNYGMNWVRQAPGQGLEWMGWINTYTGEPTYADDFKGRFVFSLDTSVSTAYLQISSLKAEDTAVYYCARKFLTTVVVTDYAMDYWGQGTTVTVSS VL: DIQMTQSPSSLSASVGDRVTITCRASQDISNYLNWYQQKPGKAPKLLIYYTSRLQSGVPSRFSGSGSGTDYTLTISSLQPEDFATYYCQQGNTLPPTFGQGTKLEIK

From patent US20150111251A1 (AbbVie / Abbott, published 2015)
